# Reference: PMC10247859, “Replisome-cohesin interactions provided by the Tof1-Csm3 and Mrc1 cohesion establishment factors” (Chromosoma, 2023)
# T1: Chl1 (S. cerevisiae (budding yeast), UniProt P22516 1-861)
# T1 construct: Chl1, budding yeast; codon-optimized ectopic copy; also called Flag-tagged Chl1; Chl1 helicase
# T1 sequence (looked up): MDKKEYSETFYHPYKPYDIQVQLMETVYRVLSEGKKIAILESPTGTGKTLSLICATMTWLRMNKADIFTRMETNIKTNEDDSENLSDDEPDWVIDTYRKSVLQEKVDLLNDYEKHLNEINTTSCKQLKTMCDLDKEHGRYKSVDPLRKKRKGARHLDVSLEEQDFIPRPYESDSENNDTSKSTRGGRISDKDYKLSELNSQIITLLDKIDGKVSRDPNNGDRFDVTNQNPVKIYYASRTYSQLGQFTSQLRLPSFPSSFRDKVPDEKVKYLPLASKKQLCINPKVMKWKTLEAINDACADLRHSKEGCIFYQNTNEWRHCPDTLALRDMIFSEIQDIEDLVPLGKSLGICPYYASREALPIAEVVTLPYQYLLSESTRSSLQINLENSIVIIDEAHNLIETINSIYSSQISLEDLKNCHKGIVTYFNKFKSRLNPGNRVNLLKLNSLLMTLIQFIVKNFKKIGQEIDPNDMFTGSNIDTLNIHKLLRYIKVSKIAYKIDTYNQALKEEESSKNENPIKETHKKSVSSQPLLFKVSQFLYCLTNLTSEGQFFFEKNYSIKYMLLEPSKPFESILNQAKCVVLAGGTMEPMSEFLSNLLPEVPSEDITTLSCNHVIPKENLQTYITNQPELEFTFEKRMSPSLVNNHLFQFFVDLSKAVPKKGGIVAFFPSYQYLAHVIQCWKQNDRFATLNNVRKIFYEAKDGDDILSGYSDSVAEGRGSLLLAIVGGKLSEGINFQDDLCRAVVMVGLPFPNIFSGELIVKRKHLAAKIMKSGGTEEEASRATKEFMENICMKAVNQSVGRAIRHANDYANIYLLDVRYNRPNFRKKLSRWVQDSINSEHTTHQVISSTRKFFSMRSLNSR
# T2: Tof1 (S. cerevisiae (budding yeast), UniProt P53840 1-1238)
# T2 construct: Tof1, budding yeast; the Tof1 chain of m2; Stood in the cross-linking sample as a chain of the Tof1-Csm3 complex; source: purified as part of Tof1-Csm3, as previously described (Yeeles et al. 2017)
# T2 sequence (looked up): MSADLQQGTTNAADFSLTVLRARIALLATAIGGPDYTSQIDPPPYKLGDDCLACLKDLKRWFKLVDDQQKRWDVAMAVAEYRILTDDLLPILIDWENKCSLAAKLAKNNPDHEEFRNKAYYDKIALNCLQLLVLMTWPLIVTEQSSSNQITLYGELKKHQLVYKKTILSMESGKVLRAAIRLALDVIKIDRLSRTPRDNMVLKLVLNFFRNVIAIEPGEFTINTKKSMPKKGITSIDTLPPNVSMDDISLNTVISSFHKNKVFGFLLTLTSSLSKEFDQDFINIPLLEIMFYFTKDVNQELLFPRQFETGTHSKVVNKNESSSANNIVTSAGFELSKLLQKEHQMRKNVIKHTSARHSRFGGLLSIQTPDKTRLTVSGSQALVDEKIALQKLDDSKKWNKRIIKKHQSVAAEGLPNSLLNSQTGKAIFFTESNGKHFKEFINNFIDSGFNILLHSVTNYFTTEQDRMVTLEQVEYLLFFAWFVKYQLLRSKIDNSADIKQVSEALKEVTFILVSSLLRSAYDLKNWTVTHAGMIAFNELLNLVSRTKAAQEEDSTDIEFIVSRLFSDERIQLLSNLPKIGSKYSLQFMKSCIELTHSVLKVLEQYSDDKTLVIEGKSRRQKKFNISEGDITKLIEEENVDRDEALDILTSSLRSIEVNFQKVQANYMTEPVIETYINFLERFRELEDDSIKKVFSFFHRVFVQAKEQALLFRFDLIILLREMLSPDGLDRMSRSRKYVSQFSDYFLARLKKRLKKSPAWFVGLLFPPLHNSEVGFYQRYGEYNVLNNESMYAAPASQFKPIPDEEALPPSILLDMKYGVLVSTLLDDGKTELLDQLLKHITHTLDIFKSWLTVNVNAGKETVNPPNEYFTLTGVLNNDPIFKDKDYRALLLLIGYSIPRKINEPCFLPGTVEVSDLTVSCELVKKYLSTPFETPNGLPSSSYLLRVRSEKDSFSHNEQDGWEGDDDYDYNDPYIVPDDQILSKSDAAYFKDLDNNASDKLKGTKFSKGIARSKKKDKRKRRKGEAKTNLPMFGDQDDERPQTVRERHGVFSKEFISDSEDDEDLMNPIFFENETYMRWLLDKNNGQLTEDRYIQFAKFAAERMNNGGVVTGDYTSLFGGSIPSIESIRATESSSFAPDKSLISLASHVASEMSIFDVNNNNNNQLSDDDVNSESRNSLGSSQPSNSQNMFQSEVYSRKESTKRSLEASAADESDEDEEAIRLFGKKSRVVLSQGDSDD
# Legend:
# Conditions in all cases: both partners purified
# Chl1 = molecular target: T1, Chl1; experiment: cross-linking; CLMS with sulfo-SDA; cohesin, Tof1-Csm3 and Chl1 with or without Mrc1 at 300-350 nM, 30 °C 5 min, cross-linker 2 h at 4 °C, UV 365 nm; LC-MS/MS, 1% FDR at residue-pair level; two samples merged
# Tof1 = molecular target: T2, Tof1; experiment: as above
# [1] = molecular target: T3, cohesin trimer (Smc1-Smc3-Scc1) (S. cerevisiae (budding yeast), UniProt P32908 1-1225; P47037 1-1230; Q12158 1-566); experiment: pull-down; Tof1-Csm3 (200-600 nM) held on calmodulin dynabeads; cohesin tetramer, trimer or Smc1-Smc3 dimer as prey; interaction buffer with 100 mM potassium glutamate; Coomassie staining; benzonase or NaCl added where indicated
# T3 construct: Smc1, cohesin subunit, budding yeast; Smc3, cohesin subunit, budding yeast; Scc1, cohesin subunit, budding yeast; source: purified following the same protocol as cohesin tetramers (IgG agarose, 3C protease cleavage); copies: + +
# Smc1-Smc3 dimer = molecular target: T4, Smc1-Smc3 dimer (S. cerevisiae (budding yeast), UniProt P32908 1-1225; P47037 1-1230); experiment: as above
# T4 construct: Smc1, cohesin subunit, budding yeast; Smc3, cohesin subunit, budding yeast; also called SMC dimer; SMC dimers (Smc1-Smc3); source: purified following the same protocol as cohesin tetramers (IgG agarose, 3C protease cleavage); not shown: Protein A, C-terminal, cleaved
# [2] = molecular target: T5, cohesin tetramer complex (Smc1-Smc3-Scc1-Scc3) (S. cerevisiae (budding yeast), UniProt P32908 1-1225; P47037 1-1230; Q12158 1-566; P40541 1-1150); experiment: pull-down; cohesin tetramer (200-600 nM) held on Protein A dynabeads by anti-Pk antibody (Pk tag on Smc1); 200 nM prey, 30 °C, 5 min; 25 mM HEPES-KOH pH 7.6, 100 mM potassium glutamate, 10 mM magnesium acetate, 0.12% NP-40; SDS elution, Coomassie staining
# T5 construct: Smc1, cohesin subunit, budding yeast; Smc3, cohesin subunit, budding yeast; Scc1, cohesin subunit, budding yeast; Scc3, cohesin subunit, budding yeast; also called cohesin complex; source: purified as previously described (Minamino et al. 2018): IgG agarose, 3C protease cleavage; copies: + + +
# T5 sequence (P32908 whole entry, chain 1 of 3): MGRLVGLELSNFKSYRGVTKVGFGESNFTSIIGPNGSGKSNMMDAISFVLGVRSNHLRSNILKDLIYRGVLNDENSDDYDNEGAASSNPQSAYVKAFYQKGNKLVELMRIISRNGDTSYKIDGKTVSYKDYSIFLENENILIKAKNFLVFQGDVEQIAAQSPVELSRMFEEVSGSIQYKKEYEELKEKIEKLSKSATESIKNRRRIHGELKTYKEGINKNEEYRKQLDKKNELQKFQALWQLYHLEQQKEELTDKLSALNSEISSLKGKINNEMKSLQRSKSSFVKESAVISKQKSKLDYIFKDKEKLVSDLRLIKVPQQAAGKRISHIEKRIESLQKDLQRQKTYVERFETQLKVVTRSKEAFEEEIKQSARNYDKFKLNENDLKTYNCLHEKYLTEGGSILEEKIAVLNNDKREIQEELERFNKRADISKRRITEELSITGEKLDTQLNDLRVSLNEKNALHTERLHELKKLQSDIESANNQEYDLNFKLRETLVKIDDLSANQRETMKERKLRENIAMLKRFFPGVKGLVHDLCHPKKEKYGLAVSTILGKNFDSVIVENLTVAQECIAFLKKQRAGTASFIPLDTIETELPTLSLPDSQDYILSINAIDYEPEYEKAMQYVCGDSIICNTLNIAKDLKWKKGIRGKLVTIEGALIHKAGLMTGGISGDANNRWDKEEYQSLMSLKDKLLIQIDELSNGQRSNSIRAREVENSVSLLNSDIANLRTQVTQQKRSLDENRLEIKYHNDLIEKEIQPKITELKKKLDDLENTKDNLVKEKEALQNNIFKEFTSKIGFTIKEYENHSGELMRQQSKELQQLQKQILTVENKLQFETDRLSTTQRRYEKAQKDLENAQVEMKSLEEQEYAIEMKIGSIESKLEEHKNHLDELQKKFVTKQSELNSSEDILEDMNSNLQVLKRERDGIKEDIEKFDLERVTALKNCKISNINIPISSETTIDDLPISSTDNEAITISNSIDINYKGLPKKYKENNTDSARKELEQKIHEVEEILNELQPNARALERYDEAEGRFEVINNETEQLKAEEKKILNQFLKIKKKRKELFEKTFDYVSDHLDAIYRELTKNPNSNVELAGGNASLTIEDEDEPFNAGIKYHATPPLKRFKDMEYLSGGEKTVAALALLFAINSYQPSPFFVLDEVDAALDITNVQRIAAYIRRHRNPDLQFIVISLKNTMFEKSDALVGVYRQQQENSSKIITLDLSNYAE
# T5 sequence (P47037 whole entry, chain 2 of 3): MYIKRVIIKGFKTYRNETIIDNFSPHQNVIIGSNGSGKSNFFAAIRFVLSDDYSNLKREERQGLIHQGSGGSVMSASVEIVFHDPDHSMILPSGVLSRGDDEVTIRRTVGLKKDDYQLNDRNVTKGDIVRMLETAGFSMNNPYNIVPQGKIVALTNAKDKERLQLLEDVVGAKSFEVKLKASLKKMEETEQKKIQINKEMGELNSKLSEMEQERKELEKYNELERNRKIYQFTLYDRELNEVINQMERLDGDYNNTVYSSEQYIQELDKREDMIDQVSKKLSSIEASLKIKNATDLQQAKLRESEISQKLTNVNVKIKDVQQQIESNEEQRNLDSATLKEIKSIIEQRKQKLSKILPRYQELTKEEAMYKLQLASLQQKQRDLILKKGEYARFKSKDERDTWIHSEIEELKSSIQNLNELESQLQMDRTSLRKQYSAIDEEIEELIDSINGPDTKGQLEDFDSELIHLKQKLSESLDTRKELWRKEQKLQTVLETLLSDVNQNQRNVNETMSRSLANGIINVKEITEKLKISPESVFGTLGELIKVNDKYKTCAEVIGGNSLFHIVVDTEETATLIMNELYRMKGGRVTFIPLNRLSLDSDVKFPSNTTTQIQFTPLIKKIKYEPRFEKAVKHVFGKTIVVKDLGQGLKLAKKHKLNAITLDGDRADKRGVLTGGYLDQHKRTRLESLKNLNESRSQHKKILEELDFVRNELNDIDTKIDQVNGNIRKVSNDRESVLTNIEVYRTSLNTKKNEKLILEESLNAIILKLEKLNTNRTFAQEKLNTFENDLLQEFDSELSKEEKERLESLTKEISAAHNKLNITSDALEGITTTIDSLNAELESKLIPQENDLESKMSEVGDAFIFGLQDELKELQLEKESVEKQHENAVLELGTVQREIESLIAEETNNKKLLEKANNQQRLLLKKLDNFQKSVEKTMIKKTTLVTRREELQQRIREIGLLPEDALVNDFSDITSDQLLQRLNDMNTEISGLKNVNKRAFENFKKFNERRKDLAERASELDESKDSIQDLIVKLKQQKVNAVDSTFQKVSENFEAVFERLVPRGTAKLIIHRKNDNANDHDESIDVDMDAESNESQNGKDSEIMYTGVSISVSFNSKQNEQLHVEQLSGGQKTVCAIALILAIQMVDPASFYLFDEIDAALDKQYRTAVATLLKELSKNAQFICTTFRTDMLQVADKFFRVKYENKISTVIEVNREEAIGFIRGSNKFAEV
# T5 sequence (P40541 whole entry, chain 4 of 3): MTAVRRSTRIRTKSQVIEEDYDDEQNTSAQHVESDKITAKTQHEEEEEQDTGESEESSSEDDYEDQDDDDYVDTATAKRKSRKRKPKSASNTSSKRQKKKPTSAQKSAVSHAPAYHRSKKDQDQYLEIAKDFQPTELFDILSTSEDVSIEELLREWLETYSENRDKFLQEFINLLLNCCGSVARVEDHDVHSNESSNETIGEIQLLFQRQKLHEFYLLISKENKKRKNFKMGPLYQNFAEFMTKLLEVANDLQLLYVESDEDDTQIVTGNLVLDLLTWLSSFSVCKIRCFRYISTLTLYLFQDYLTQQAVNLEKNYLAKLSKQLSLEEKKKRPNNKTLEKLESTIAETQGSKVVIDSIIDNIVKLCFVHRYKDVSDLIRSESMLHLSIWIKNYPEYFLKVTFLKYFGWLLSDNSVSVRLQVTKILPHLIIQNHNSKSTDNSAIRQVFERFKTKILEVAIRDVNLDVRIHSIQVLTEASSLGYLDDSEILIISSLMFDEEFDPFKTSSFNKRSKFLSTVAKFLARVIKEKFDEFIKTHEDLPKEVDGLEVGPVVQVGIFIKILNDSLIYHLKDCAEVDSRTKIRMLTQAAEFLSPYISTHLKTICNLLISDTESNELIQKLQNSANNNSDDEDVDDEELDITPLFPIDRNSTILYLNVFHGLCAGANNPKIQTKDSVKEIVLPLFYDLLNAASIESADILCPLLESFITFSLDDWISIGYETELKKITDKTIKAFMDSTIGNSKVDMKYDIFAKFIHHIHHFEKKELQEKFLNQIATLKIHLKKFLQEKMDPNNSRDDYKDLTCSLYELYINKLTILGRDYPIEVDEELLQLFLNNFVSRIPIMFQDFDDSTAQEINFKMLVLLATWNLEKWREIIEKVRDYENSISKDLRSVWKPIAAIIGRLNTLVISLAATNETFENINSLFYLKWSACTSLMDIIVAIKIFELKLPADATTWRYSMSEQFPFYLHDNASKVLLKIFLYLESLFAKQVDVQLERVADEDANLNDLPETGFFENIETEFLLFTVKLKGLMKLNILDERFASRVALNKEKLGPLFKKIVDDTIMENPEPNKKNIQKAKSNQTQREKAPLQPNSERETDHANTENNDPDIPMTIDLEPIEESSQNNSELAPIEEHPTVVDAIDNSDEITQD
# T4 sequence (P32908 whole entry, chain 1 of 2): as the sequence (P32908 whole entry, chain 1 of 3) above
# T4 sequence (P47037 whole entry, chain 2 of 2): as the sequence (P47037 whole entry, chain 2 of 3) above
# T3 sequence (P32908 whole entry, chain 1 of 2): as the sequence (P32908 whole entry, chain 1 of 3) above
# T3 sequence (P47037 whole entry, chain 2 of 2): as the sequence (P47037 whole entry, chain 2 of 3) above
binding result (Chl1),binding result (Tof1),binding result [1],binding result (Smc1-Smc3 dimer),binding result [2],Binder
binds,binds,–,–,–,"Scc1 (natural protein, S. cerevisiae (budding yeast), UniProt Q12158 1-566, looked up, Scc1, budding yeast; the Scc1 chain of m1; Stood in the cross-linking sample as a chain of cohesin; source: purified as part of cohesin, as previously described (Minamino et al. 2018)) MVTENPQRLTVLRLATNKGPLAQIWLASNMSNIPRGSVIQTHIAESAKEIAKASGCDDESGDNEYITLRTSGELLQGIVRVYSKQATFLLTDIKDTLTKISMLFKTSQKMTSTVNRLNTVTRVHQLMLEDAVTEREVLVTPGLEFLDDTTIPVGLMAQENSMERKVQGAAPWDTSLEVGRRFSPDEDFEHNNLSSMNLDFDIEEGPITSKSWEEGTRQSSRNFDTHENYIQDDDFPLDDAGTIGWDLGITEKNDQNNDDDDNSVEQGRRLGESIMSEEPTDFGFDLDIEKEAPAGNIDTITDAMTESQPKQTGTRRNSKLLNTKSIQIDEETENSESIASSNTYKEERSNNLLTPQPTNFTTKRLWSEITESMSYLPDPILKNFLSYESLKKRKIHNGREGSIEEPELNVSLNLTDDVISNAGTNDNSFNELTDNMSDFVPIDAGLNEAPFPEENIIDAKTRNEQTTIQTEKVRPTPGEVASKAIVQMAKILRKELSEEKEVIFTDVLKSQANTEPENITKREASRGFFDILSLATEGCIGLSQTEAFGNIKIDAKPALFERFINA"
–,–,binds,binds,binds,"Tof1-Csm3 complex (complex, S. cerevisiae (budding yeast), Tof1, budding yeast; Csm3, budding yeast; Held on calmodulin dynabeads when used as bait; source: purified as previously described (Yeeles et al. 2017)) chain 1: MSADLQQGTTNAADFSLTVLRARIALLATAIGGPDYTSQIDPPPYKLGDDCLACLKDLKRWFKLVDDQQKRWDVAMAVAEYRILTDDLLPILIDWENKCSLAAKLAKNNPDHEEFRNKAYYDKIALNCLQLLVLMTWPLIVTEQSSSNQITLYGELKKHQLVYKKTILSMESGKVLRAAIRLALDVIKIDRLSRTPRDNMVLKLVLNFFRNVIAIEPGEFTINTKKSMPKKGITSIDTLPPNVSMDDISLNTVISSFHKNKVFGFLLTLTSSLSKEFDQDFINIPLLEIMFYFTKDVNQELLFPRQFETGTHSKVVNKNESSSANNIVTSAGFELSKLLQKEHQMRKNVIKHTSARHSRFGGLLSIQTPDKTRLTVSGSQALVDEKIALQKLDDSKKWNKRIIKKHQSVAAEGLPNSLLNSQTGKAIFFTESNGKHFKEFINNFIDSGFNILLHSVTNYFTTEQDRMVTLEQVEYLLFFAWFVKYQLLRSKIDNSADIKQVSEALKEVTFILVSSLLRSAYDLKNWTVTHAGMIAFNELLNLVSRTKAAQEEDSTDIEFIVSRLFSDERIQLLSNLPKIGSKYSLQFMKSCIELTHSVLKVLEQYSDDKTLVIEGKSRRQKKFNISEGDITKLIEEENVDRDEALDILTSSLRSIEVNFQKVQANYMTEPVIETYINFLERFRELEDDSIKKVFSFFHRVFVQAKEQALLFRFDLIILLREMLSPDGLDRMSRSRKYVSQFSDYFLARLKKRLKKSPAWFVGLLFPPLHNSEVGFYQRYGEYNVLNNESMYAAPASQFKPIPDEEALPPSILLDMKYGVLVSTLLDDGKTELLDQLLKHITHTLDIFKSWLTVNVNAGKETVNPPNEYFTLTGVLNNDPIFKDKDYRALLLLIGYSIPRKINEPCFLPGTVEVSDLTVSCELVKKYLSTPFETPNGLPSSSYLLRVRSEKDSFSHNEQDGWEGDDDYDYNDPYIVPDDQILSKSDAAYFKDLDNNASDKLKGTKFSKGIARSKKKDKRKRRKGEAKTNLPMFGDQDDERPQTVRERHGVFSKEFISDSEDDEDLMNPIFFENETYMRWLLDKNNGQLTEDRYIQFAKFAAERMNNGGVVTGDYTSLFGGSIPSIESIRATESSSFAPDKSLISLASHVASEMSIFDVNNNNNNQLSDDDVNSESRNSLGSSQPSNSQNMFQSEVYSRKESTKRSLEASAADESDEDEEAIRLFGKKSRVVLSQGDSDD chain 2: MDQDFDSLLLGFNDSDSVQKDPTVPNGLDGSVVDPTIADPTAITARKRRPQVKLTAEKLLSDKGLPYVLKNAHKRIRISSKKNSYDNLSNIIQFYQLWAHELFPKAKFKDFMKICQTVGKTDPVLREYRVSLFRDEMGMSFDVGTRETGQDLERQSPMVEEHVTSAEERPIVADSFAQDKRNVNNVDYDNDEDDDIYHLSYRNRRGRVLDERGNNETVLNNVVPPKEDLDALLKTFRVQGPVGLEENEKKLLLGWLDAHRKMEKGSMTEEDVQLIQSLEEWEMNDIEGQHTHYDLLPGGDEFGVDQDELDAMKEMGF"
